Experimental data published in article PMC11575642 (Chemical Science, 2024).

Molecular target: Glutathione peroxidase 4 (GPX4), endogenous in OS-RC-2 cells (Homo sapiens, OS-RC-2 cells, UniProt P36969)
Assay: pull-down

B1: 4C-R10 (nanobody 4C fused at its C-terminus through an SGSGSG linker to the arginine-rich R10 cell-penetrating peptide) (VHH)
VHH: EVQLEESGGGSVQAGGSLRLSCAAPGDTSSRYYMGWFRQAPGKEREGVAGFSTGLGRTTYADSVKGRFTISQDNAKNTIYLQMNSLKVEDTAMYYCATGRAWAAGSPMYGPFDSRRYNYWGQGTQVTVSS
B1: binds.
